Source: patent publication US20250296984A1, “THERAPEUTIC AND DIAGNOSTIC AGENTS AND USES THEREOF” (priority 2022, published 2025)

How the values were obtained:
[1] = target: T1, US28 protein from HCMV strain DB on HEK Phoenix Ampho cells (Human cytomegalovirus, UniProt P69332, D170N/D19A); test: Flow cytometry, HEK Phoenix Ampho cells transfected with US28 (DB); format: binding; details: mock subtracted, fold-difference minus 1, sign = increase or decrease
T1 construct: expressed in transfected cells; host or cells: HEK Phoenix Ampho (ATCC-CRL-3213)
Protocol: (§1) ii. Materials: • Cells: HEK Phoenix Ampho (ATCC-CRL-3213), p 21. • Staining buffer: PBS with 1% BSA, 2 mM EDTA. • Plasmid: Encoding US28 protein from different HCMV strains: DB; TB40/E; Merlin; and VHL/E. • Blocking: Human TruStain FcX™ (ref 422302). • Live Dead: Invitrogen™ eBioscience™ Fixable Viability Dye eFluor™ 780 (ref 13539140). • Primary antibodies: 7B1F3 (6.76 nM=1 μg/ml); hum7B1F3 (6.76 nM=1 μg/ml).
(§2) The day before transfection, HEK Ampho cells were seeded in a 1×6-well plate with 1×10^6 live cells/well, 2 mL/well. Seeded 4 wells for HEKPhoenix_plasmids. Seeded 2 wells for HEKPhoenix_Mock transfected. Incubated the cells in a 37° C. incubator with >80% relative humidity and 5% CO2.
(§3) After 1 day, cells will have adhered and reached >60% confluency. Removed 700 uL media from each well prior to transfection. Allowed X-tremeGENE™ HP DNA Transfection Reagent, DNA and diluent Opti-MEM® I Reduced Serum Medium to warm to +15° C. to +25° C., and vortexed gently. Placed 100 μL diluent in a sterile tube for each condition. Added 1 μg plasmid DNA. Pipetted gently to mix (DNA was not added for the mock condition): • DB (683.3 ng/μL): 1.46 μL • TB40/E (742.05 ng/μL): 1.35 μL • Merlin (70.78 ng/μL): 14.13 μL • VHL/E (51.87 ng/μL): 19.28 μL
(§4) Added 3 μL X-tremeGENE™ HP DNA Transfection Reagent to the diluted DNA. (3:1 ratio of reagent to DNA). Pipetted gently to mix, then: • 1. […]

[2] = target: T2, US28 protein from HCMV strain TB40/E on HEK Phoenix Ampho cells (Human cytomegalovirus, UniProt P69332, A8T/D15E/E18L/V24T); test: Flow cytometry, HEK Phoenix Ampho cells transfected with US28 (TB40/E); format: binding; details: mock subtracted, fold-difference minus 1, sign = increase or decrease
T2 construct: expressed in transfected cells; host or cells: HEK Phoenix Ampho (ATCC-CRL-3213)
Protocol: as §1, §2, §3, §4

[3] = tested on: HEKPhoenix_Mock transfected cells; test: Flow cytometry, HEKPhoenix Mock transfected cells; format: binding, human; details: antibody concentration 6.76 nM, Myc tag detection
Protocol: as §1, §2, §3, §4

[4] = target: T3, US28 protein from HCMV strain Merlin on HEK Phoenix Ampho cells (Human cytomegalovirus, UniProt P69332, S330G); test: Flow cytometry, HEK Phoenix Ampho cells transfected with US28 (Merlin); format: binding; details: mock subtracted, fold-difference minus 1, sign = increase or decrease
T3 construct: expressed in transfected cells; host or cells: HEK Phoenix Ampho (ATCC-CRL-3213)
Protocol: as §1, §2, §3, §4

B1: 7B1F3-Myc: 7B1F3 labelled with a Myc tag (antibody, V domains shown)
VH: EVQLQQSGAELAKPGASVKMSCKASGYTFTNYWMHWVKQRPGQGLEWIGYVNPRTGYTEYNQKFKDKATLTADKSSRTAYMQLSSLTSEDSAVYSCARILNGTGFAYWGQGTLVTVSA
VL: DIVLTQSPSSLTVSVGEKFTMSCKSSQSLLYSSNQKNYLAWYQQKPGQSPKLLIYWASTRESGVPDRFTGSGSGTDFTLAISSVKPEDLAIYYCQQYYSFPLTFGAGTKLEIK
Variation in binding, relative to determined binding to US28 as encoded by VHL/E; DB [1]: +0.64
Variation in binding, relative to determined binding to US28 as encoded by VHL/E; TB40/E [2]: +0.14
Preliminary Binding Data, Mock [3]: 0.06
Variation in binding, relative to determined binding to US28 as encoded by VHL/E; Merlin [4]: +0.21
